Measurements taken from paper PMC2691816 (Nucleic Acids Research, 2009).

Target: purified hXRCC1 protein (human, UniProt P18887 1-633)
Experiment: far-Western, overlay or dot blot

purified hXRCC1 protein, sequence (P18887 whole entry): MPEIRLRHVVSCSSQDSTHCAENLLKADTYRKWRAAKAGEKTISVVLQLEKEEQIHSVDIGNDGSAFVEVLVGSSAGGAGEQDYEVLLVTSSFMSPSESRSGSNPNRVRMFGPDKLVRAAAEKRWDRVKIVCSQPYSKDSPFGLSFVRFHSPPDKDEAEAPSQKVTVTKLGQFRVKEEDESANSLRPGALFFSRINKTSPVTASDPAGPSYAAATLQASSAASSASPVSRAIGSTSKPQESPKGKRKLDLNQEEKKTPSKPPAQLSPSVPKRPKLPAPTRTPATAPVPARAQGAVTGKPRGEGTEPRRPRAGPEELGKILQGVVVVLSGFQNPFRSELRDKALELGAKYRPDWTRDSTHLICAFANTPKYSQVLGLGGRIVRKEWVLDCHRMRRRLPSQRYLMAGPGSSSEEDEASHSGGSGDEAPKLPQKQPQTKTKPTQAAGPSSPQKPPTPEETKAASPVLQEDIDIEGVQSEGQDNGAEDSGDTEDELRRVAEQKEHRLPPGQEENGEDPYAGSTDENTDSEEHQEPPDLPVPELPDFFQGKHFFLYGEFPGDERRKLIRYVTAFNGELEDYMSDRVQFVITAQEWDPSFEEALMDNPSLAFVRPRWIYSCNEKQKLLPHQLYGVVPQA

- binding result: binds
B1: His-tagged p58 N-terminal domain (amino acids 1–266) (domain or fragment, human, UniProt P49643 1-266, looked up)
chain: MEFSGRKWRKLRLAGDQRNASYPHCLQFYLQPPSENISLIEFENLAIDRVKLLKSVENLGVSYVKGTEQYQSKLESELRKLKFSYRENLEDEYEPRRRDHISHFILRLAYCQSEELRRWFIQQEMDLLRFRFSILPKDKIQDFLKDSQLQFEAISDEEKTLREQEIVASSPSLSGLKLGFESIYKIPFADALDLFRGRKVYLEDGFAYVPLKDIVAIILNEFRAKLSKALALTARSLPAVQSDERLQPLLNHLSHSYTGQDYSTQG
